Results published in patent publication US20080176225A1, “MEMBRANE BOUND REPORTER GENE SYSTEM” (priority 2007, published 2008).

How the values were obtained:
[1] = Specific activity and pH profile of purified recombinant β-glucuronidases; format: biochemical; conditions: purified recombinant protein, n=3; for maximal specific activity: at optimal pH
Excerpt: It is contemplated that the disparity between the relative surface expression levels the relative enzymatic activity of human β-glucuronidase, mouse β-glucuronidase, and E. coli β-glucuronidase in EJ cells is probably because of the neutral pH optimum of E. coli β-glucuronidase or a highly specific enzyme activity for the recombinant E. coli β-glucuronidase enzyme, which could cause the relatively effective hydrolysis of glucuronide substrates even though even though the expression levels of E. coli β-glucuronidase present on EJ/eβG cells are relatively lower than the expression levels of human β-glucuronidase. To differentiate these possibilities, recombinant forms of each enzyme are purified in order to measure accurately their specific activities at defined pH values.
The relative enzymatic activities (percentage maximum activity) of these recombinant enzymes at the indicated pH values are shown (n=3).
E. coli β-glucuronidase display a maximal specific activity of about 20,000 U/mg whereas human β-glucuronidase and mouse β-glucuronidase had maximal specific activities of abut 1600 U/mg and about 1100 U/mg, respectively.

[2] = tested on: 3T3 fibroblasts; test: Surface enzyme activity assay of transiently transfected 3T3 fibroblasts (4-methylumbelliferyl β-D-glucuronide); format: cell-based, murine
Protocol: (§1) For performing surface enzyme activity assay, transiently-transfected 3T3 fibroblasts in 96-well microplates were washed once with phosphate-buffered saline and immediately assayed for βG activity by adding about 200 μl of phosphate-buffered saline (pH 7.0) buffer containing 0.1% of BSA and 0.25 mM of a β-glucuronidase substrate, 4-methylumbelliferyl β-D-glucuronide, for 30 min at 37° C. About 150 μl of the resulting mixture was transferred to a 96-well fluorescence microplate and mixed with about 75 μl of a stop buffer containing about 1 M of glycine and about 0.5 M of sodium bicarbonate at pH 11. The fluorescence of each mixture was measured at an excitation wavelength of 365 nm and an emission wavelength of 455 nm.
3T3 fibroblasts were transfected with plasmid DNAs using lipofectamine. After about 48 hour, the transfected cells were washed with phosphate-buffered saline and immediately assayed for β-glucuronidase activity by adding 4-methylumbelliferyl β-D-glucuronide for about 30 min at 37° C. The fluorescence (MUG reading as shown) of the resulting mixture was measured. The β-glucuronidase activity in the culture medium of transfected cells was also measured in an analogous way.

[3] = tested on: EJ cells; test: Surface β-glucuronidase enzyme activity of stable EJ cells; format: cell-based, human; conditions: triplicate determinations
Protocol: as §1
The results shown are the mean values of triplicate determinations. EJ/mβG cells display about 2-3 fold more β-glucuronidase activity than EJ/eβG cells and about 5-fold higher activity than EJ/hβG cells. […] The enzymatic activity of E. coli β-glucuronidase in EJ cells are relatively higher than human β-glucuronidase, even though the expression levels of E. coli β-glucuronidase present on EJ/eβG cells are relatively lower than the expression levels of human β-glucuronidase.

B1: human β-glucuronidase: purified recombinant human β-glucuronidase protein (protein, listed as Homo sapiens)
chain: LQGGMLYPQESPSRECKELDGLWSFRADFSDNRRRGFEEQWYRRPLWESGPTVDMPVPSSFNDISQDWRLRHFVGWVWYEREVILPERWTQDLRTRVVLRIGSAHSYAIVWVNGVDTLEHEGGYLPFEADISNLVQVGPLPSRLRITIAINNTLTPTTLPPGTIQYLTDTSKYPKGYFVQNTYFDFFNYAGLQRSVLLYTTPTTYIDDITVTTSVEQDSGLVNYQISVKGSNLFKLEVRLLDAENKVVANGTGTQGQLKVPGVSLWWPYLMHERPAYLYSLEVQLTAQTSLGPVSDFYTLPVGIRTVAVTKSQFLINGKPFYFHGVNKHEDADIRGKGFDWPLLVKDFNLLRWLGANAFRTSHYPYAEEVMQMCDRYGIVVIDECPGVGLALPQFFNNVSLHHHMQVMEEVVRRDKNHPAVVMWSVANEPASHLESAGYYLKMVIAHTKSLDPSRPVTFVSNSNYAADKGAPYVDVICLNSYYSWYHDYGHLELIQLQLATQFENWYKKYQKPIIQSEYGAETIAGFHQDPPLMFTEEYQKSLLEQYHLGLDQKRRKYVVGELIWNFADFMTEQSPTRVLGNKKGIFTRQRQPKSAAFLLRERYWKIANETRYPHSVAKSQCLENSPFT
maximal specific activity [1]: ~1600 U/mg

B2: hβG-e-B7: human β-glucuronidase fused to Ig-like C2-type and Ig-hinge-like domains, TM and cytoplasmic tail of murine B7-1 (protein)
chain: LQGGMLYPQESPSRECKELDGLWSFRADFSDNRRRGFEEQWYRRPLWESGPTVDMPVPSSFNDISQDWRLRHFVGWVWYEREVILPERWTQDLRTRVVLRIGSAHSYAIVWVNGVDTLEHEGGYLPFEADISNLVQVGPLPSRLRITIAINNTLTPTTLPPGTIQYLTDTSKYPKGYFVQNTYFDFFNYAGLQRSVLLYTTPTTYIDDITVTTSVEQDSGLVNYQISVKGSNLFKLEVRLLDAENKVVANGTGTQGQLKVPGVSLWWPYLMHERPAYLYSLEVQLTAQTSLGPVSDFYTLPVGIRTVAVTKSQFLINGKPFYFHGVNKHEDADIRGKGFDWPLLVKDFNLLRWLGANAFRTSHYPYAEEVMQMCDRYGIVVIDECPGVGLALPQFFNNVSLHHHMQVMEEVVRRDKNHPAVVMWSVANEPASHLESAGYYLKMVIAHTKSLDPSRPVTFVSNSNYAADKGAPYVDVICLNSYYSWYHDYGHLELIQLQLATQFENWYKKYQKPIIQSEYGAETIAGFHQDPPLMFTEEYQKSLLEQYHLGLDQKRRKYVVGELIWNFADFMTEQSPTRVLGNKKGIFTRQRQPKSAAFLLRERYWKIANETRYPHSVAKSQCLENSPFTVDEQKLISEEDLADFSTPNITESGNPSADTKRITCFASGGFPKPRFSWLENGRELPGINTTISQDPESELYTISSQLDFNTTRNHTIKCLIKYGDAHVSEDFTWEKPPEDPPDSKNTLVLFGAGFGAVITVVVIVVIIKCFCKHRSCFRRNEASRETNNSLTFGPEEALAEQTVFL
β-glucuronidase enzyme activity on the cell surface [2]: greatest levels

B3: mouse β-glucuronidase: purified recombinant mouse β-glucuronidase protein (protein, listed as Mus musculus)
chain: LKGGMLFPKESPSRELKALDGLWHFRADLSNNRLQGFEQQWYRQPLRESGPVLDMPVPSSFNDITQEAALRDFIGWVWYEREAILPRRWTQDTDMRVVLRINSAHYYAVVWVNGIHVVEHEGGHLPFEADISKLVQSGPLTTCRITIAINNTLTPHTLPPGTIVYKTDTSMYPKGYFVQDTSFDFFNYAGLHRSVVLYTTPTTYIDDITVITNVEQDIGLVTYWISVQGSEHFQLEVQLLDEDGKVVAHGTGNQGQLQVPSANLWWPYLMHEHPAYMYSLEVKVTTTESVTDYYTLPVGIRTVAVTKSKFLINGKPFYFQGVNKHEDSDIRGKGFDWPLLVKDFNLLRWLGANSFRTSHYPYSEEVLQLCDRYGIVVIDECPGVGIVLPQSFGNESLRHHLEVMEELVRRDKNHPAVVMWSVANEPSSALKPAAYYFKTLITHTKALDLTRPVTFVSNAKYDADLGAPYVDVICVNSYFSWYHDYGHLEVIQPQLNSQFENWYKTHQKPIIQSEYGADAIPGIHEDPPRMFSEEYQKAVLENYHSVLDQKRKEYVVGELIWNFADFMTNQSPLRVIGNKKGIFTRQRQPKTSAFILRERYWRIANETGGHGSGPRTQCFGSRPFTF
maximal specific activity [1]: about 1100 U/mg

B4: mβG-e-B7: murine β-glucuronidase fused to immunoglobulin-like C2-type extracellular region, transmembrane domain and cytoplasmic tail of murine B7-1 antigen (protein)
chain: LKGGMLFPKESPSRELKALDGLWHFRADLSNNRLQGFEQQWYRQPLRESGPVLDMPVPSSFNDITQEAALRDFIGWVWYEREAILPRRWTQDTDMRVVLRINSAHYYAVVWVNGIHVVEHEGGHLPFEADISKLVQSGPLTTCRITIAINNTLTPHTLPPGTIVYKTDTSMYPKGYFVQDTSFDFFNYAGLHRSVVLYTTPTTYIDDITVITNVEQDIGLVTYWISVQGSEHFQLEVQLLDEDGKVVAHGTGNQGQLQVPSANLWWPYLMHEHPAYMYSLEVKVTTTESVTDYYTLPVGIRTVAVTKSKFLINGKPFYFQGVNKHEDSDIRGKGFDWPLLVKDFNLLRWLGANSFRTSHYPYSEEVLQLCDRYGIVVIDECPGVGIVLPQSFGNESLRHHLEVMEELVRRDKNHPAVVMWSVANEPSSALKPAAYYFKTLITHTKALDLTRPVTFVSNAKYDADLGAPYVDVICVNSYFSWYHDYGHLEVIQPQLNSQFENWYKTHQKPIIQSEYGADAIPGIHEDPPRMFSEEYQKAVLENYHSVLDQKRKEYVVGELIWNFADFMTNQSPLRVIGNKKGIFTRQRQPKTSAFILRERYWRIANETGGHGSGPRTQCFGSRPFTFVDEQKLISEEDLADFSTPNITESGNPSADTKRITCFASGGFPKPRFSWLENGRELPGINTTISQDPESELYTISSQLDFNTTRNHTIKCLIKYGDAHVSEDFTWEKPPEDPPDSKNTLVLFGAGFGAVITVVVIVVIIKCFCKHRSCFRRNEASRETNNSLTFGPEEALAEQTVFL
surface β-glucuronidase activity of EJ/mβG cells relative to EJ/hβG cells ([3]; higher activity): about 5 fold | surface β-glucuronidase activity of EJ/mβG cells relative to EJ/eβG cells ([3]; more activity): 2-3 fold

B5: E. coli β-glucuronidase: purified recombinant E. coli β-glucuronidase protein (protein, UniProt P05804 1-603, looked up)
Beta-glucuronidase: MLRPVETPTREIKKLDGLWAFSLDRENCGIDQRWWESALQESRAIAVPGSFNDQFADADIRNYAGNVWYQREVFIPKGWAGQRIVLRFDAVTHYGKVWVNNQEVMEHQGGYTPFEADVTPYVIAGKSVRITVCVNNELNWQTIPPGMVITDENGKKKQSYFHDFFNYAGIHRSVMLYTTPNTWVDDITVVTHVAQDCNHASVDWQVVANGDVSVELRDADQQVVATGQGTSGTLQVVNPHLWQPGEGYLYELCVTAKSQTECDIYPLRVGIRSVAVKGEQFLINHKPFYFTGFGRHEDADLRGKGFDNVLMVHDHALMDWIGANSYRTSHYPYAEEMLDWADEHGIVVIDETAAVGFNLSLGIGFEAGNKPKELYSEEAVNGETQQAHLQAIKELIARDKNHPSVVMWSIANEPDTRPQGAREYFAPLAEATRKLDPTRPITCVNVMFCDAHTDTISDLFDVLCLNRYYGWYVQSGDLETAEKVLEKELLAWQEKLHQPIIITEYGVDTLAGLHSMYTDMWSEEYQCAWLDMYHRVFDRVSAVVGEQVWNFADFATSQGILRVGGNKKGIFTRDRKPKSAAFLLQKRWTGMNFGEKPQQGGKQ
maximal specific activity [1]: about 20,000 U/mg | pH of maximal/optimal enzymatic activity [1]: neutral pH range
